Measured values published in the supplement of paper PMC9170038.

System: MS2 coat protein
Test: apparent KD of MS2 coat protein; higher = weaker reporter binding
Conditions: Eterna round: R107; input ligand: arginine 13.2 mM
Experimental: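 RNA-MaP round R107: designed RNA switches with theophylline, tryptophan, arginine or FMN aptamers are transcribed on-chip within common flanks. They are titrated with SNAP-549-labelled MS2 coat protein in RNA-MaP buffer (100 mM Tris pH 7.5, 80 mM KCl, 4 mM MgCl2), without ligand or with the indicated ligand. Median apparent KD per design.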

Sequence | apparent KD of MS2 coat protein [µM]
UGGCAGUACAUGGGUUACUGCCAAGGUGAUACCAGCAUCGAAAGAUGCCCUUGGCAGCACCAACAUGAGGAUCACCCAUGUAAUA [(MT)''-(M)'-(T')-(Theo)-(Ms2)_Design1/22_8] | 0.0685
ACCUUACAUGAGGAUCACCCAUGUCGUGAUACCAGAAACCACGUAUUCCCUUGGCAGCACACCCGUGAUGAGAUUGUCGGUUUUG [theeternabot_sameState_MS2_Theo_A_43] | 0.0422
UUACAUGAGGAUCACCCAUGUCAUAAUGAUACCAGAUAGUUGAUGAUCCCUUGGCAGCAUAGUACCUAGACAUGUGAGUCAUAGG [Ab] | 0.116
AAAUCAGUCUGAAGGAGCGUCACAUGAGGAUCACCCAUGUACAUGAGGAUCACCCAUGUGUGACAGGUAGGUCGCAGAGGAUACC [Exclusion Arginine B GF 4] | 0.125
AGCUCGCGUCCUCAAGCGUCAAAGACGCGUCGAGGACCGGUACGGCCGCCACUCGACCUGAGGAUCACCCAGGUUUAAGCGAGCA [TrypAX 6 #SwitchBubble #AlternativeMS2 #MS2Late #CuTurnoff] | 0.0127
UGACAUUGCUCAGAUACCAGACAUGAGCAUCAGCCAUGUACCAAGAGUACAUGUUAAAAUGUCCCUUGGCAGCUGAGCAAUGUCU [Mod of Eli's TheoBX5 #AlternateMS2 v2] | 0.0736
CGAUACGUAACUGAUACCAGUGUACUGACAUGAGGAUCACCCAUGUUGGGUUUUGUUGUACACCCUUGGCAGCAGAAUCGUAUCG [AstrosExyTheB#18] | 0.0521
GAAUUUAUAUGAAGGAGCGUCGAAAAUGGGUAAACAUGAGGAUCACCCAUGUAAAGGGAACGACAGGUAGGUCGCAUAUGGAUUC [AstromonsSSArgB#26] | 0.114
AGUGACUACAUCUGGAAUUAAGGUAGGGAAGGAGCGCGGUAAGACGCAGGUAGGUCGCCCUACAUGAGGAUCACCCAUGUGAUGU [XARG-A 28] | 0.0755
CCGGCAUGUCGAAGGAGCGUCACAUGAGGAUCACCCAUGUACAUGAGGAUCACCCAUGUGUGACAGGUAGGUCGCGGCGGCCAGG [Exclusion Arginine B GF7] | 0.108
GCGCUCGACAGAAGGAGCGGCGACGUCGGUGUCAGGAGGCACAUGAGGAUCACCCAUGUCAGCCAGGUAGGUCGCUGUCGAUCGC [Arquce] | 0.0228
UAAUUCACUAUUCACGGUCCGAUGUUCGAUACCAGAUCAUUUCGAAUCCCUUGGCAGCGAUUAACAUGAGGAUCACCCAUGUAAC [theeternabot_exclusion_MS2_Theo_A_35] | 0.0284
ACAUGAGGAUCACCCAUGUACAUAAGGGAAGGAGCGCGGUGGAACGCAGGUAGGUCGCCCAUAAUAACAAUAAAUAAAUUCAUGU [#04 Same State - Arginine A] | 0.0146
GGCACCAGGAGAAGGAGCGUGAAGACAUGAGGAUCACCCAUGUAGAGGCCCGUACUGGGUUCGCAGGUAGGUCGCUCCUGGUGCC [#1 Same State - Arginine B Attempt #13 (HarryS)] | 0.0221
ACACAUGAGGAUCACCCAUGUUGAGGAACACGAGGACCGGUACGGCCGCCACUCGACACAUGAGGAUCACCCAUGUGAUCACCCA [Same State Tryptophan A 2] | 0.0497
CCGGUUAGGACGGCCGCCACUGUGGCUACGGUACAUGAGGAUCACCCAUGUUUGUGGUUGAUCUACAGGACCGGGUCCUGACACG [Eronri] | 0.124
CUCCGAGGCUAUACUAUCCGCCUCAGUGAUACCAGAAUACCUAUAUUCCCUUGGCAGCAUCACAUGAGGAUCACCCAUGUGCCAU [SSTheo A #14] | 0.0134
AUGACUUACGGGCGCCAUUUGUAAUAGGAAGGAGCGGCGAGAUAGCCAGGUAGGUCGCCUAUACAUGAGGAUCACCCAUGUCACC [Vegeorbe] | 0.0668
UCGUUUUAGUCGGCCGCCACUGUAUGCAUGUUUAACAUGAGGAUCACCCAUGUCCCGUACUAUUUCAGGACCGGGACGUAAUCGA [JR_SSTryptoB_Sub007] | 0.14
GCUGUGAAGUCGGCCGCCACUGGUUAGUUUUACCUCAUGUAACAUGAGGAUCACCCAUGUAAUUUCAGGACCGGGACAACAGCAA [JR_ExcTryptoB_Sub017] | 0.135
ACGACGCAUAGUGAUACCAGUAGAACAUGAGGAUCACCCAUGUCUGUGGCGCUCCGCCUCUGCCCUUGGCAGCACUAUGCGUCAG [SSTheo B #10] | 0.0119
ACAUGAGGAUCACCCAUGUGGCGACUUGAUACCAGACCCGCACUAGUCCCUUGGCAGCAACUACGUGAGGGACACCCAUGUGAAG | 0.0176
UUUACAUGAGGAUCACCCAUGUGCCAUGAUACCAGACAUGAAAAUGUCCCUUGGCAGCAUGAAUGAUUCAUAGGAUAAUUAUGGG [Obrany] | 0.0694
GUUAUGGACCUGGAUACCAGCUGGUACGAGGGCGGUCUACAUGAGGAUCACCCAUGUGUCAGCCCUUGGCAGCCAGCAACCCGCU [Raquleer] | 0.01
ACAUGAGGAUCACCCAUGUAAGGUCUUGAUACCAGACGCGAAGUAGUCCCUUGGCAGCAAAUACGUGAGGGUCGCACAUGUGUAA [mcnmullin] | 0.0184
ACUAGUUGUGCAGAUACCAGACAUGAGGAUCACCCAUGUUUGGGUUGUUCGCAACUUCCUGUCCCUUGGCAGCUGUACAUCUAGA [Omei Theo B Exc v5] | 0.0189
GCACAACAUGAGGAUCACCCAUGUCGAGAUACCAGAACAUAUAUAUUCCCUUGGCAGCUCACACCUUUAAUGUAAAAUUCUUUGG [theeternabot_sameState_MS2_Theo_A_47] | 0.012
GAGGGUGGGUCUCUAAUCCGUUUGACGGAUACCAGCGAGAGAUAUCGCCCUUGGCAGCCGACGACAUGAGGAUCACCCAUGUAAA [#06 Exclusion-TheophyllineA] | 0.0171
AGGUGGGUCUGAAGGAGCGCGAUAACAUGAGGAUCACCCAUGUUAAAUGGUACAUGAUACUCGCAGGUAGGUCGCAGUAAAACCA [Same State Arginine B GF 12] | 0.025
